Source: patent publication CN113603773A (FIRST HOSPITAL CHINA MEDICAL UNIV, dated 2021)

Legend:
[1] = biological target: T1, 人源淀粉样蛋白42 Aβ42 单体 (human, UniProt P05067 672-713); experiment: ELISA, Aβ coated at 5 μg/mL, 7B8 diluted 1:20,000, OD450
T1 construct: domain: Aβ42; Monomer preparation; also called Aβ42 mon

[2] = biological target: T2, 人源淀粉样蛋白42 Aβ42 纤维体 (human, UniProt P05067 672-713); experiment: dot blot on nitrocellulose, ECL
T2 construct: domain: Aβ42; Fibril preparation; also called Aβ42 fib
T2 sequence (P05067 672-713 limits assumed): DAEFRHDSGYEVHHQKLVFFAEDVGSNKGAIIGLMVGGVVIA

[3] = biological target: T3, 人源淀粉样蛋白42 Aβ42 寡聚体 (human, UniProt P05067 672-713); experiment: dot blot on nitrocellulose, ECL
T3 construct: domain: Aβ42; Oligomer preparation; also called Aβ42 oli
T3 sequence (P05067 672-713 limits assumed): as above

Measured: binding result

T1 sequence (P05067 672-713 limits assumed): as above

B1: 靶向淀粉样蛋白的单克隆抗体7B8 (antibody, mouse IgG1, V domains shown)
VH: QVQLQQPGAELVKPGASVKLSCKTSDYSFTSYWMHWVKQRPGQGLEWIGEINPSNGRKKYNEKFKSKATLTVDTSSSTAYMQLSSLTSEDSAVYYCAREGRGYWGQGTTLTVSS
VL: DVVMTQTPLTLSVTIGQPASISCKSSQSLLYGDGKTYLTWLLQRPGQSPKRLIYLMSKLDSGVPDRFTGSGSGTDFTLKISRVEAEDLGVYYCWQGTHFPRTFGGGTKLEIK
notes: also called 抗Aβ3-10的单克隆抗体
binds: all assays above
